Data: the nanobody polyreactivity screen of Harvey et al. (2022)

Assay: yeast display, Sf9 membrane polyspecificity reagent, FACS + sequencing; frameworks hold sequencing errors
How it was run: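 Galactose induction of a Saccharomyces cerevisiae BJ5465 synthetic nanobody display library ran 36–48 hours. The cells were then stained for 1 hour at 4 °C with 10% biotinylated, detergent-solubilized Sf9 membrane reagent, pulled down on streptavidin microbeads and FACS-sorted into low and high (top ~1%) gates on expression and reagent-binding fluorescence. Labels for polyreactivity follow the gate of origin.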

Row | Sequence | polyreactivity (PSR sort gate)
1 | QVQLVESGGGLVQAGGSLRLSCAASGSIFRRYAMGWYRKAPGKERELVAGISRGGGITYYADSVKGRFTISRDNAKNTVYLQMNSLKPEDTAVYYCAARIGATYWVDWTHRAYDYWGQGTQVTVSS | high polyreactivity
2 | QVQLVESGGGLVQAGGSLRLSCAASGSIFRRYAMGWYRQAPGKERELVAAISFSGGSTYYADSVKGRFTISRDNAKNTVYLQMNSLKPEDTAVYYCAARSYAYSGDYWGQGTQVNVSS | high polyreactivity
3 | QVQLVESGGGLVQAGGSLRLSCAASGSIFRRYAMGWYRQAPGKERELVAAISGSAGSTYYADSVKGRFTISRDNAKNTVYLQMNSLKPEDTAVYYCAADPDDGYDYWGQVTQVTVSS | low polyreactivity
4 | QVQLVESGGGLVQAGGSLRLSCAASGSIFRRYTMGWYRQAPGKERELVAAISRVGNTNYADSVKGRFTISRDNAKNTVYLQMNSLKPEDTAVYYCAARAIGYRYTPGLNYWGQGTQVTVSS | high polyreactivity
5 | QVQLVESGGGLVQAGGSLRLSCAASGSIFRRYVMGWYRQAPGKERELVASISSNGTSTYYADSVKGRFTISRDNSKNTVYLQMNSLKPEDTAVYYCNVDIFDPRTYDYWGQGTQVTVSS | low polyreactivity
6 | QVQLVESGGGLVQAGGSLRLSCAASGSIFRSNTMGWYRQAPGKERELVASITRGGSTNYADSVKGRFTISRDNAKNTVYLQMNSLKPEDTAVYYCIARRTVRYYFSYGYWGQGTQVTVSS | high polyreactivity
7 | QVQLVESGGGLVQAGGSLRLSCAASGSIFRSYAMGWYRQAPGKERELVAAIRSDGRTNYADSVKGRFTISRDNAKNTVYLQMNSLKPEDTAVYYCAAKAYYSYWRSMDYWGQGTQVTVSS | low polyreactivity
8 | QVQLVESGGGLVQAGGSLRLSCAASGSIFRSYAMGWYRQAPGKERELVAAISRRGGSTYYADSVKGRFTISRDNAKNTVYLQMNSLKPEDTAVYYCAADRTGPYDYWGQGTQVTVSS | high polyreactivity
9 | QVQLVESGGGLVQAGGSLRLSCAASGSIFRSYAMGWYRQAPGKERELVAAISSRSGSTYYADSVKGRFTISRDNAKNTVYLQMISLKPEDTAVYYCAAQHRHSYGYWGQGTQVTVSS | high polyreactivity
10 | QVQLVESGGGLVQAGGSLRLSCAASGSIFRSYAMGWYRQAPGKERELVAAISSSSGSTYYADSVKGRFTISRDNAKNTVYLQMNSLKPEDTAVYYCAARSRIGNNGYEYWGQGTQVTVSS | low polyreactivity
11 | QVQLVESGGGLVQAGGSLRLSCAASGSIFRSYAMGWYRQAPGKERELVAAITFSGGRTYYADSVKGRFTISRDNAKNTVYLQMNSLKPEDTGVYYCNARHRNLAEYDYWGQGTQVTVSS | low polyreactivity
12 | QVQLVESGGGLVQAGGSLRLSCAASGSIFRSYAMGWYRQAPGKERELVASISRRGGSTYYADSVKGRFTISRDNAKNTVYLQMNSLKLEDTAVYYCAAVRYNSRVSTTPSEMYYWGQGTQVTVSS | low polyreactivity
13 | QVQLVESGGGLVQAGGSLRLSCAASGSIFRSYAMGWYRQAPGKERQLVARISKRGGSTYYADSVKGRFTISRENAKNTVYLQMNSLKPEDSAVYYCNASYFRYRYNRYVYWGQGTQVTVSS | high polyreactivity
14 | QVQLVESGGGLVQAGGSLRLSCAASGSIFRSYAMGWYRQAPGNERELVAALSGRGSNTYYADSVKGRFTISRDNAKNTVYLQMNSLKPEDTAVYYGATRRHYGSTRSYDYWGQGTQVTVSS | high polyreactivity
15 | QVQLVESGGGLVQAGGSLRLSCAASGSIFRSYAMGWYSPSPGKERELVAAITRSGGSTYYADSVKGRFTISRDNAKNTVYLQMNSLKPEDTAVYYCAAEYYSYTWGWGHGYWGQGTQVTVSS | high polyreactivity
16 | QVQLVESGGGLVQAGGSLRLSCAASGSIFRTYVMGWYRQAPGKERELVATIDSTSGSTYYADSVKGRFTISRDNAKNTVYLQMNSLKPEDTAVYYCNVLVYYYYVVKSTYRWYDYWGQGTQVTVSS | high polyreactivity
17 | QVQLVESGGGLVQAGGSLRLSCAASGSIFRVYAMGWYRQAPGKERELVAAIRSGGGTNYADSVKGRFTISRDNAKITVYLQMNSLKPEDTAVYYCAREAATDISPGYDYWGQGTQVTVSS | low polyreactivity
18 | QVQLVESGGGLVQAGGSLRLSCAASGSIFRVYAMGWYRQAPGKERELVAAISSIVGSTYYADSVKGRFTISRDNAKNTVYLQMNSLKPADTAVYYCNKDGTWPRTGSEYDYWGQGTQVTVSS | low polyreactivity
19 | QVQLVESGGGLVQAGGSLRLSCAASGSIFRVYAMGWYRQAPGKERELVAAISVSGGSTNYADSVKGRFTISRDNAKNTVYLQMNSLKPEDTAVYYCNRKQQVSSELDYWGQGTQVTVSS | low polyreactivity
20 | QVQLVESGGGLVQAGGSLRLSCAASGSIFRVYAMGWYRQAPGKERELVASISRRGGSTYYADSVKGRFTISRDNAKKTVYLQMNSLKPEETAVYYFAAEFVIGGHGYDYWGQGTQVTVSS | high polyreactivity
21 | QVQLVESGGGLVQAGGSLRLSCAASGSIFRVYMGWYRQAPGKERELVATIRWSSGSTYYADSVKGRFTISRDNAKNTVYLQMNSLKPEDTAVYYCAVKGPYYDDYDYWGQGTQVTVSS | low polyreactivity
22 | QVQLVESGGGLVQAGGSLRLSCAASGSIFRWNAMGWYRQAPGKERELVAAIDSGGSTYADSVKGRFTISRDNAKNTVYLQMNSLKPEDTAVYYCAAEIPDEWPYDYWGQGTQVTVSS | low polyreactivity

Row | Sequence | polyreactivity (PSR sort gate)
23 | QVQLVESGGGLVQAGGSLRLSCAASGSIFRWNAMGWYRQAPGKERELVAAITWRSSSTYYADSVKGRFTISRDNAKNTVYLQMNSLKPEDTAVYYCNAKRGVQTYANFYGSKYDYWGQGTQVTVSS | high polyreactivity
24 | QVQLVESGGGLVQAGGSLRLSCAASGSIFRWYAMGWYRQAPGKERELVAAITWSASRTYYADSVKGRFTISRDNAKNTVYLQMNSLKPEDTAVYYCAKRGWSSVYFHGGFGYKLYDYWGQGTQVTVSS | low polyreactivity
25 | QVQLVESGGGLVQAGGSLRLSCAASGSIFRWYAMGWYRQAPGKERELVASITRSGGRTYYADSVKGRFTISRDNAKNTVYLQMNSLKPEDTAVYYCAADYYAYWYRYRYYYWGQGTQVTVSS | high polyreactivity
26 | QVQLVESGGGLVQAGGSLRLSCAASGSIFRWYDMGWYRQAPGKERELVAVISKRGGSTYYADSVKGRFSISRDNAKNTVYLQMTSLKPEDTAVYSCAKRYERWQLARLDYWGQGTQVTVSS | high polyreactivity
27 | QVQLVESGGGLVQAGGSLRLSCAASGSIFRWYTMGWYRQAPGKERELVAAISRSGGSTYYADSVKGRFTISRDNAKNTVYLQMNRLKPEDTAVYYCAADKFRHPYWDRYIYFHYDYWGQGTQVTVSS | low polyreactivity
28 | QVQLVESGGGLVQAGGSLRLSCAASGSIFRYAMGWYRQAPGKEREFVAAITSRGGTTYYADSVKGRFTISRDNAKNTVYLLMNSLKPEDTAVYYCYAHRYATAGSWVVRHDYWGQGTQGTVSS | high polyreactivity
29 | QVQLVESGGGLVQAGGSLRLSCAASGSIFRYNAMGWYRQAPGKERELVASISISDGSTYYADSVKGRFTISRDNAKNTVYLQMKSLKPEDTAVYYCAARTRDFYYPYDYWGQGTQVTVSS | low polyreactivity
30 | QVQLVESGGGLVQAGGSLRLSCAASGSIFRYNTMGWYRQAPGKERELVAAITSSGGRTYYADSVKGRFTISRDNAKNTVYLQMNSLKPEDTAVYYCAARRSFYGRVYDDQYDYWGQGTQVTVSS | high polyreactivity
31 | QVQLVESGGGLVQAGGSLRLSCAASGSIFRYNTMGWYRQAPGKERELVARISSGGSTYYADSVKGRFTISRDNAKNTVYLQMNSLKPEDTAVYYCAAVSRHRGWDRYYWGQGTQVTVSS | high polyreactivity
32 | QVQLVESGGGLVQAGGSLRLSCAASGSIFRYNTMGWYRQATGKERELDATITRRGGSTYYADSVKGRFTISRDNAKNTVYLQMNSLKPEDTAVYYCNADNFGGPFNYWGQGTQVTVSS | low polyreactivity
33 | QVQLVESGGGLVQAGGSLRLSCAASGSIFRYYAMGWYRPATGKERELVADITSSGGSTYYADSVKGRFTISRDNPKNTVYLQMNSLKREDTAVYYCASLYWFYVYPFTEYDYWGQGTQVTVSS | low polyreactivity
34 | QVQLVESGGGLVQAGGSLRLSCAASGSIFRYYAMGWYRQAPGKERELVAAITASSGNTYYADSVKGRFTISRDNAKNTVYLQMNRLKPEDTSVYYCSKQPGISYRHYDYWGLGTQVTVSS | high polyreactivity
35 | QVQLVESGGGLVQAGGSLRLSCAASGSIFRYYAMGWYRQAPGKERELVATISWRGGRTNYADSVKGRFTISRDNAKNTVYLQMNSLKPEDTAVYYCAADPVRRPWGVVGGDYWGQGTQVTVSS | high polyreactivity
36 | QVQLVESGGGLVQAGGSLRLSCAASGSIFRYYVMGWYRQAPGKEREFVAAISYRGGSTYYADSVKGRFTISRDNAKNTVYLEMNSLKPEDTAVYFCYAVHYRSFWTPGSNDYWGQGTQVTVSS | high polyreactivity
37 | QVQLVESGGGLVQAGGSLRLSCAASGSIFRYYVMGWYRQAPGKERELVAAITGGGGSTYYADSVKGRFTISRDNAKNTVYLQMNSLKPEDTAVYYCATATYVGVYWEYDYWGQGTQVTVSS | low polyreactivity
38 | QVQLVESGGGLVQAGGSLRLSCAASGSIFRYYVMGWYRQAPGKERELVASISYSVGRTYYADSVKGRFTISRDNAKNTVYLQMNSLKPEVTAVYYCAADRYWPYYSAYYTSYRMDYWGKGTQVTVSS | high polyreactivity
39 | QVQLVESGGGLVQAGGSLRLSCAASGSIFRYYVTGWYRQAPGKERELVATISSSGGRTYYADSVKGRFTISRDNAKNTVYLQMNSLKPEDTAVYYCNARTSPYSGYSGRYYWGQGTQVTVSS | high polyreactivity
40 | QVQLVESGGGLVQAGGSLRLSCAASGSIFSANAMGWYRQAPGKERELLAAISSSGNTNYADSVKGRFTISRDNAKNTVYLQMNSLKPEDTAVYYCAVELKQVTPGLGYITLDYWGQGTQVTVSS | low polyreactivity
41 | QVQLVESGGGLVQAGGSLRLSCAASGSIFSAYAMGWYRQAPGKEREIVASITWSGGSTYYADSVKGRFTISRDNAKNTVYLQMNSLKPEDTAVYYCAAVYVTWYNNYEYWGQGTQVTVSS | high polyreactivity
42 | QVQLVESGGGLVQAGGSLRLSCAASGSIFSAYVMGWYRQAPGKERELVAAITRSGGSTYYADSVKGRFTISRDNAKHTVYLQMNSLKPEDTAVYYCAAKSIIRPYAPRRDDMDYWGQGTQVTVSS | low polyreactivity
43 | QVQLVESGGGLVQAGGSLRLSCAASGSIFSDYAMGWYRQAPGKERELVAAITQSGGSTYADSVKGRFTISRDNAKNTVYLQMNSLKPEDTAVYYCAADEVPGFGYPPYPWFDYWGQGTQVTVSS | low polyreactivity
